Experimental data reported in patent EP1759709B1 (Elan Pharmaceuticals Inc., dated 2013).
Substitutions are numbered along the chain they refer to. One block for each binder: values may come before it.

Target: T1, human α4β1 integrin (human, UniProt P13612 34-1032; P05556 21-798)
T1 construct: whole, on cells; also called VLA-4; alpha-4-beta-1 integrin
Test: ELISA on L cells expressing α4β1 integrin; crude supernatants

- binding result: binds
B1: reshaped human 21.6 antibody (La + Ha) (antibody, V domains shown)
VH: QVQLVQSGAEVKKPGASVKVSCKASGFNIKDTYIHWVRQAPGQRLEWMGRIDPANGYTKYDPKFQGRVTITADTSASTAYMELSSLRSEDTAVYYCAREGYYGNYGVYAMDYWGQGTLVTVSS
VL: DIQMTQSPSSLSASVGDRVTITCKTSQDINKYMAWYQQTPGKAPRLLIHYTSALQPGIPSRFSGSGSGRDYTFTISSLQPEDIATYYCLQYDNLWTFGQGTKVEIK
notes: Expressed in Cos cells

- binding result: binds
B2: reshaped human 21.6 antibody (Lb + Ha) (antibody, V domains shown)
VH: B1 VH
VL: B1 VL with H49Y
notes: Human kappa / human gamma-1 constant regions; tested as crude Cos supernatant; Lb is therefore built here from La with the stated change; also called version Lb in combination with version Ha
